Laboratory results reported in patent publication US20170081417A1 (Kyowa Kirin, published 2017).

Target: T1, human OX40 (CD134), full length, expressed on cells (activated human T cells); EL4-OX40 and CHO-OX40 … (human, UniProt P43489 29-277)
T1 construct: also called TNFRSF4; surface expressed OX40
T1 sequence: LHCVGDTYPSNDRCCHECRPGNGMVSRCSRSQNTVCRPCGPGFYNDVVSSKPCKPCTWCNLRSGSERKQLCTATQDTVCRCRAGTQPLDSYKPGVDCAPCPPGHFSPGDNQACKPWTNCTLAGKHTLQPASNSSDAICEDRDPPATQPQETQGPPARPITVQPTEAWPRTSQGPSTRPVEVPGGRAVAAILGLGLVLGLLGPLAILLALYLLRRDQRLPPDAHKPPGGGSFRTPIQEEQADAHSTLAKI
Test: flow cytometry titration on activated human T cells, anti-human IgG-PE
Description: Following twenty minute incubation on ice, the cells were washed once and fixed ten minutes with 1% paraformaldehyde. After a final wash the cells were resuspended in staining buffer and the samples were acquired using FACScan or FACS Calibur flow cytometers (Becton Dickinson Biosciences, Palo Alto, Calif.), and the data were analyzed using Cellquest (Becton Dickinson Biosciences) or Flow Jo (TreeStar, Inc., San Carlos, Calif.) software. The activated T cells were also stained with mouse anti-human OX40 antibody L106 (Becton Dickinson), which was directly conjugated to phycoerythrin or whose binding was detected with anti-mouse IgG-PE (Southern Biotechnology Associates.) OX40L Blocking Assays: To determine if the anti-human OX40 antibodies could block OX40L binding to soluble OX40 both ELISA and flow cytometric protocols were used. In the ELISA 96 well Nunc flat bottom plates were coated with recombinant soluble hOX40:hFc at 2 μg/ml in carbonate buffer (pH9.4) for one hour at 37° C. The plates were washed with PBS/0.1% Tween 20 and Superblock (Pierce) was added to the wells to block non-specific binding. The test antibodies were diluted to 1 μg/ml in PBS/Tween and added to the plates. After one hour incubation at 37° C., FLAG tagged recombinant soluble human OX40L (Alexis Biochemicals, San Diego, Calif.) was added to the appropriate wells without washing out the anti-OX40 antibodies. Following one hour incubation, the plates were washed and an anti-FLAG-peroxidase conjugated antibody (Sigma) was added to the wells for one hour at 37° C. The TMB substrate was added, after ten minutes the reaction was stopped with H₂SO₄, and the results were read at 450 nm using a microplate reader. In the flow cytometric assay, human CD4+ T cells were purified and activated with PHA+IL2 for two days. The cells were washed and resuspended in staining buffer and then incubated with increasing amounts of human anti-human OX40 antibodies for twenty minutes on ice, from 0.005-50 μg/ml. Soluble recombinant OX40L-FLAG was then added to the cells. The cells were washed and incubated with anti-FLAG conjugated to PE (Sigma). After another wash, the cells were fixed with 1% paraformaldehyde and analyzed on a FACScan or FACScalibur.

B1: 112Y55 human anti-human OX40 monoclonal antibody (hybridoma ATCC No. PTA-7220) (antibody, V domains shown)
VH: QITLKESGPTLVKPTQTLTLSCTFSGFSLSTSGVGVGWIRQPPGKALEWLALIHWDDAERYSPSLKSRLTITKDTSKNQVVLTMTNMDLVDTATYYCAHTRGAFDIWGQGTMVTVSS
VL: EIVLTQSPGTLSLSPGERAILSCRASQSVSSSFLAWYQQKPGQAPRLLIYGAFSRATGIPDRFSGSGSGTDFTLTISRLEPEDFAVYYCQQYDSSRTFGQGTKVEIK
BMAX Geo Mean: 162 geometric mean fluorescence | Kd: 14 nM

B2: 112Y131 human anti-human OX40 monoclonal antibody (hybridoma ATCC No. PTA-7218) (antibody, V domains shown)
VH: QITLKESGPTLVKPTQTLTLTCTFSGFSLSTSGVGVGWIRQPPGKALEWLALIYWDDHSPYSPSLKSRLTITKDTSKNQVVLTMTNMDPVDTATYYCARTRGAFDIWGQGTMVTVSS
VL: EIVLTQSPATLSLSPGERATLSCRASQGVSSYLAWYQQKPGQAPRLLIYDASNRATGIPARFSGSGPGTDFTLTISSLEPEDFAVYYCQQRSNWHPTFGQGTKVEIK
BMAX Geo Mean: 171 geometric mean fluorescence | Kd: 25 nM
